In US20080233589A1 (WASHINGTON UNIVERSITY IN ST LOUIS, published 2008):
Residue numbers refer to the chain shown, from its start. Numbers in names are those of the source.

B1: FRB domain of human mTOR (residues 2024-2113) fused through a flexible Gly/Ser linker to an N-terminal luciferase fragment (other)
chain: HEMWHEGLEEASRLYFGERNVKGMFEVLEPLHAMMERGPQTLKETSFNQAYGRDLMEAQEWCRKYMKSGNVKDLTQAWDLYYHVFRRISK
notes: range 2024-2113; Stands for the set of FRB-NLuc fusions (GN, RN, FN) expressed in HEK293T cells; also called FRP; FRB-NLuc; not shown: flexible Gly/Ser linker with multiple cloning site; N-terminal luciferase fragment; differs between the pairs pooled in the result (click beetle green or red residues 2-413)
B2: FRB mutant S2035I fused to an N-terminal luciferase fragment (other)
chain: B1 chain with S12I
notes: range 2024-2113; also called ΔF; mutant S20351 FRB; not shown: flexible Gly/Ser linker with multiple cloning site; N-terminal luciferase fragment of the 'native split luciferase pairs'

How the values were obtained:
[1] = target: T1, human FKBP-12 fused through a flexible Gly/Ser linker to a C-terminal luciferase fragment (human, UniProt P62942 2-108); test: cell-based or functional assay
[2] = target: T1, human FKBP-12 fused through a flexible …; test: split luciferase complementation in live HEK293T cells, rapamycin titrated for 8 h; all productive click beetle green or red fragment pairs (apparent Kd on the rapamycin concentration)
Experimental: The experiments were set up in a 96 well plate format. Each well was transfected with 75 ng DNA, 225 nL Fugene6, and 10,000 cells in DMEM and heat-inactivated FBS. The cells were allowed to incubate for 48 hours. […] After 8 hours, images were taken using the Xenogen IVIS 100 optical imager. The cells were imaged in MEBSS supplemented with 1% serum and 150 μg/mL of D-luciferin. The plates were incubated at 37° C. for 10 minutes and then imaged. One minute images were taken at all available filters with a FOV C and binning of 4. Experimental DNA was prepared in molar equivalent ratios to ensure equal parts intact protein and recombined heteroprotein fragments of the various split luciferases.

[3] = target: T1, human FKBP-12 fused through a flexible …; test: split luciferase complementation in HEK293T cells, fold induction by rapamycin (FIG. 7)

T1 sequence (P62942 2-108): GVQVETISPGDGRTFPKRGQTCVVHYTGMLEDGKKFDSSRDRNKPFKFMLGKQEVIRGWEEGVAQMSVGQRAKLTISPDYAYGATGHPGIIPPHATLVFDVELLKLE

| Binder | Ki for FK506 inhibition of rapamycin-induced FRB and FKBP binding (luciferase complementation, 10 nM rapamycin) [1] [nM] | Kd [2] [nM] | binding result [3] |
| --- | --- | --- | --- |
| B1 | 1.57 | 0.25 |  |
| B2 |  |  | no binding |
